# Test results taken from patent US20230064978A1, “CYCLIC PEPTIDE RECEPTOR LANTHIONINE SYNTHETASE C-LIKE PROTEIN (LANCL) AND USES THEREOF” (LATERAL IP PTY LTD, priority 2019, published 2023).
# “Also recorded” adds a separate entry of the source. Bridges are numbered along the chain shown (N, C = ends). Where no end group is shown, it is not given here.
# How the values were obtained:
# LANCL1 = LANCL1 (Rattus norvegicus, UniProt Q9QX69); assay: Mass spectrometry of excised gel bands from PAL cross-linked homogenates (PALMS); type: binding; design: from tissue; host or cells: nerve tissue homogenate of neuropathic animals; settings: vs un-crosslinked samples (CU) and samples with excess LAT8881 (COMP); 37 kDa band
# Chain of LANCL1 (Q9QX69 whole entry): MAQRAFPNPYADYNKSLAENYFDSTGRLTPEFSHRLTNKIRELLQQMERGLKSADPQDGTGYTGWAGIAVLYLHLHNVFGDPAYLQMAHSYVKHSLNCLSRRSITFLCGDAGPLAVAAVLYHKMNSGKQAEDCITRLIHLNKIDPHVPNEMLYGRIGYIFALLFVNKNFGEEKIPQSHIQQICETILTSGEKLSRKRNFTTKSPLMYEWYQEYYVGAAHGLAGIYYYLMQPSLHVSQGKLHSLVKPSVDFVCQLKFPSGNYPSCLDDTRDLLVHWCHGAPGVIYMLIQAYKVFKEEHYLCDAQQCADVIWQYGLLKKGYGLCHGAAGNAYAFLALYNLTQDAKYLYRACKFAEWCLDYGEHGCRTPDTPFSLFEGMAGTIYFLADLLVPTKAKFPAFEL
# From the text: Having identified at least three molecular weight bands as representative of the potential targets, the 12-15 kD, 37 kD and 50 kD regions of the gel were excised, subjected to limited proteolysis and analysed by mass spectrometry to identify peptides from proteins that were differentially enriched. The detection of at least two different peptides from a protein that is enriched in the LAT9991-PAL cross-linked samples when compared to (i) the un-crosslinked samples and (ii) LAT9991-PAL in the presence of excess LAT8881 (SEQ ID NO:1; YLRIVQCRSVEGSCGF) was considered a positive signature. LAT9991-PAL, LAT9993-PAL and LAT7771-PAL were also used. LAT9993 (SEQ ID NO:41) has the amino acid sequence SCRSRPVESSC.
# [1] = system: tissue homogenates of nerve from neuropathic animals; assay: PAL cross-linking to nerve tissue homogenates and gel separation; type: binding
# From the text: Using a ligand driven approach, the present inventors utilized the photo-activatable cross-linking PAL from Evotec A.G. (Photo-Activated Labelling) technology that derivatizes the active cyclic peptides to allow UV-induced cross-linking to binding targets (described herein as peptide/SEQ ID NO:X-PAL). This allows subsequent detection in cells, gels of tissue isolates or in pull-down of the peptide/target complex for sequencing by mass spectroscopy (PALMS).
# LAT9991-PAL was cross-linked to tissue homogenates of nerve from neuropathic animals.
# human recombinant LANCL1 = target: T1, human recombinant LANCL1 (Homo sapiens, UniProt O43813); assay: In-gel fluorescence: photolabelling of recombinant LANCL1 with PAL probes, with or without excess competitor; type: binding
# T1 construct: purchased ABCAM ab181923; host or cells: E. coli
# T1 sequence (O43813 with tags, fused parts or gaps): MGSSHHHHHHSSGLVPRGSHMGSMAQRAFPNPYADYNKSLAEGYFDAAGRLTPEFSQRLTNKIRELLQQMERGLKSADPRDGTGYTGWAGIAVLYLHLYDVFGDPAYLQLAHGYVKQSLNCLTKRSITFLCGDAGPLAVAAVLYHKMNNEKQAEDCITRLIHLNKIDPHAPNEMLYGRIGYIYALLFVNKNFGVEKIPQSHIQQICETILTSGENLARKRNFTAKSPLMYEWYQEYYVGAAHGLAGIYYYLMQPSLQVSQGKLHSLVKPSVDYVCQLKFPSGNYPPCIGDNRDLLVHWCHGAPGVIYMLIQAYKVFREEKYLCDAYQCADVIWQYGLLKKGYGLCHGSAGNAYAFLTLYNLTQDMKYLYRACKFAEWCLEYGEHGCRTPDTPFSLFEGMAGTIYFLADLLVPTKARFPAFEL
# Procedure: The in-gel fluorescence protocol can be briefly described as follows:
# 1. LANCL1 Labelling, Assay on 96 Well Plate, Volume of the Reaction 40 μl in PBS
# 3 μg/well of human recombinant LANCL1 (ABCAM catalog no. ab181923, 1 mg/ml; expressed in E. Coli and incorporating an N-terminal 23 amino acid hexaHis tag; UniProtKB/Swiss-Prot Accession no: O43813);
# • Vehicle DMSO • ±LAT8881 (a cyclic peptide fragment of human growth hormone; SEQ ID NO:1) • SEQ ID NO:1) as competitor @ 25, 50, 100 or 200 μM, pre-incubation 10 min, 4 μl of a stock solution 10-fold concentrated • ±LAT9991-PAL, LAT7771-PAL or LAT9993-PAL probes @ 1 μM, incubation 30 min at room temperature on a plate agitator (protected from light), 4 μl of a stock solution @10 μM
# • Irradiation @ 365 nm 20 min (4° C., on a support containing ice) Transfer 40 μl in a clean Eppendorf tube
# • Reduction: DTT 10 mM, 30 min @ 56° C. • Alkylation: Iodoacetamide 30 mM, 45 min @ RT Click-iT AzideTamra of 60 μL samples
# (§1) • Acetone Precipitation −20° C. ON • Dry pellet resuspended in 30 μL 1% SDS in 50 mM Tris-HCl pH 7.5 • Photolabeled LANCL1 was tagged with tetramethylrhodamine (TAMRA) azide @100 μM TAMRA azide by copper click chemistry using the Click-iT Protein Reaction Buffer Kit (ThermoFisher Scientific) during 30 minutes • Precipitation using the chloroform-methanol method, pellet was air-dried for 10 min at room temperature, resuspended in 30 μL SDS loading buffer (Bio Rad's XT Sample Buffer containing 2.5% v/v 2-mercaptoethanol) and heated (60° C., 30 min)
# (§2) • SDS-PAGE (4-15% Criterion™ TGX Stain-Free™ Protein Gel, Bio Rad) • Analyzed by in-gel fluorescence scanning using a ChemiDoc™ MP Imaging System (Bio Rad) with a green LED light as an excitation source and a BP600/20 nm emission filter
# human recombinant LANCL2 = target: T2, human recombinant LANCL2 (Homo sapiens, UniProt Q9NS86); assay: In-gel fluorescence: photolabelling of recombinant LANCL2 with PAL probe, with or without excess LAT8881; type: binding; settings: in-gel fluorescence after UV cross-linking
# T2 construct: human recombinant LANCL2 (amino acid residues 1-450); GST (N); purchased ABCAM ab163277; host or cells: wheat germ
# T2 sequence (Q9NS86 1-450): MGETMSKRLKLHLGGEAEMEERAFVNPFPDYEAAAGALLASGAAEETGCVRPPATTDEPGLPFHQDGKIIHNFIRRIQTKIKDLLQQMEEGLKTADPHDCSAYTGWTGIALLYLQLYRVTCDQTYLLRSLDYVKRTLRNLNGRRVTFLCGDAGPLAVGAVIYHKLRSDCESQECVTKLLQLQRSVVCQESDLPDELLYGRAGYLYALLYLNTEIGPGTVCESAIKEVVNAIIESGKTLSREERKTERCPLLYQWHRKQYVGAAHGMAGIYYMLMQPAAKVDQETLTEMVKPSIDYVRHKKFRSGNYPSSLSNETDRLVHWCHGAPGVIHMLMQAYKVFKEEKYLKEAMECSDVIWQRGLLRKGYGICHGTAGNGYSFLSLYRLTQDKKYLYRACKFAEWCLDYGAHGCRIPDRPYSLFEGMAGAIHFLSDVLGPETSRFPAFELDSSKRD
# Procedure: (§3) An in-gel fluorescence protocol was followed to determine whether the cyclic peptides bound to LANCL2 and LANCL3. Briefly:
# (§4) 1. LANCL2 and LANCL3 Labelling, Assay on 96 Well Plate, Volume of the Reaction 40 μl in PBS
# • 1 μg/well of human recombinant LANCL2 (amino acid residues 1-450; ABCAM catalog no. ab163277, ˜0.07 mg/ml; expressed in wheat germ and incorporating an N-terminal GST tag; UniProt Accession no: Q9NS86);
# • Vehicle DMSO • ±LAT8881 (a cyclic peptide fragment of human growth hormone; SEQ ID NO:1) • SEQ ID NO:1 as competitor @ 50, 100 or 200 μM, pre-incubation 10 min, 4 μl of a stock solution 10-fold concentrated • ±LAT9991-PAL probes @ 1 μM, incubation 30 min at room temperature on a plate agitator (protected from light), 4 μl of a stock solution @10 μM
# (§5) • Irradiation @ 365 nm 20 min (4° C., on a support containing ice) • Transfer 40 μl in a clean Eppendorf tube
# (§6) • Reduction: DTT 10 mM, 30 min @ 56° C. • Alkylation: Iodoacétamide 30 mM, 45 min @ RT Click-iT AzideTamra of 60 μL samples
# as §1, with “for” for “during”, “Rad” for “Rad's”
# as §2
# DRG neurons = assay: Confocal microscopy of PAL probe binding in DRG cell cultures, spinal nerve ligation model; type: cell-based, Sprague Dawley rats; settings: specificity control; excess unlabeled competitor
# From the text: LAT9991-PAL was used in conjunction with confocal microscopy to visualise the location of potential target(s), noting that analgesic agents can have activity at several sites, either on central or peripheral neurons, or on glial or inflammatory cells that are in proximity to neurons. To identify the cell types to which LAT9991-PAL binds, 3-day cell cultures of DRG from neuropathic or control sites were taken from animals with neuropathy due to spinal nerve ligation. Briefly, L5 and L6 spinal nerves of male Sprague Dawley rats were ligated to create a robust and long-lasting mechanical allodynia of the injured hind paw. Presence of neuropathic pain was confirmed 2 weeks post-spinal nerve ligation surgeries (day 14) using von Frey (VF) filaments (up-and-down method) applied on ipsilateral (injured) and contralateral (non-injured) paw). Live DRG cells were dissected out as described previously and incubated with LAT9991-PAL for 1 hour prior to UV irradiation to fix the binding in situ. […] As a specificity control, the binding of LAT9991-PAL to the neuropathic DRG was blocked in the presence of an excess amount of unlabeled LAT9991 peptide.
# human recombinant LANCL3 = target: T3, human recombinant LANCL3 (Homo sapiens, UniProt Q6ZV70); assay: In-gel fluorescence: photolabelling of recombinant LANCL3 with PAL probe, with or without excess LAT8881; type: binding; settings: in-gel fluorescence after UV cross-linking
# T3 construct: human recombinant LANCL3 (amino acid residues 1-420); 10xHis (N); Myc (C); purchased ABCAM ab163277; host or cells: E. coli
# T3 sequence (Q6ZV70 whole entry, the tested form may be a part): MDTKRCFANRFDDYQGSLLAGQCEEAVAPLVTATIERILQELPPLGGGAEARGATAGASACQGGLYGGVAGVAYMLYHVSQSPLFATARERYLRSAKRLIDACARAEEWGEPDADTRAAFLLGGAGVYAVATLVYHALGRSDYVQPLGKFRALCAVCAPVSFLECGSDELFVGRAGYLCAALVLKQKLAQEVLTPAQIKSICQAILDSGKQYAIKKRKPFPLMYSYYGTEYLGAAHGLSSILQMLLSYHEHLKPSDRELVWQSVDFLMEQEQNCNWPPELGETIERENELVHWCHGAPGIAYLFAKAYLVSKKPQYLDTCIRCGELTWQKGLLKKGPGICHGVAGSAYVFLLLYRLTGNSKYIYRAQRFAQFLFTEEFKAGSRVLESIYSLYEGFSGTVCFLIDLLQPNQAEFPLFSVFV
# Procedure: as §3, §4
# • […] of human recombinant LANCL3 (amino acid residues 1-420; ABCAM catalog no. ab163277, ˜0.07 mg/ml; expressed in E. Coli and incorporating an N-terminal 10×His tag and a C-terminal Mvc tag; UniProt Accession no: Q6ZV70);
# • Vehicle DMSO • ±LAT8881 (a cyclic peptide fragment of human growth hormone; SEQ ID NO:1) • SEQ ID NO:1 as competitor @ 50, 100 or 200 μM, pre-incubation 10 min, […], incubation 30 min at room temperature on a plate agitator (protected from light), 4 μl of a stock solution @10 μM
# as §5, §6
# as §1, with “for” for “during”, “Rad” for “Rad's”
# as §2
Substance,LANCL1 bound / enriched in PAL probe cross-linked samples (mass spectrometry) (LANCL1),Cross-linking of PAL probe to tissue homogenates of nerve from neuropathic animals [1],Molecular weight ranges of targets stained after gel separation ([1]; PAL probe cross-linked to nerve homogenates),Binding of PAL probe to recombinant LANCL1 (human recombinant LANCL1; in-gel fluorescence after UV (365 nm) cross-linking),Binding of PAL probe to recombinant LANCL2 (human recombinant LANCL2),Block of LAT9991-PAL binding to neuropathic DRG by excess unlabeled peptide (DRG neurons),"Inhibition of LAT9991-PAL binding to recombinant LANCL1 by excess competitor (human recombinant LANCL1; probe LAT9991-PAL, excess unlabelled competitor)",Binding of PAL probe to recombinant LANCL3 (human recombinant LANCL3)
"LAT7771-PAL: cyclic peptide conjugate of LAT7771 (SEQ ID NO:52) with the PAL photo-activatable cross-linking group (CRIIHNNNC; disulfide 1-9 (inferred); also: ['PAL photo-activatable cross-linking group, structure and site not given here'])",enriched by several fold-changes; also recorded: bound to LANCL1,shown to cross-link,"˜12-15 kD, ˜37 kD and ˜50 kD",bound to recombinant LANCL1,bound to recombinant LANCL2,,,
CRSVEGSCG (disulfide 1-8 (inferred)) [LAT9991],,,,,,blocked,inhibited,
"LAT9993-PAL: cyclic peptide conjugate of LAT9993 (SEQ ID NO:41) with the PAL photo-activatable cross-linking group (SCRSRPVESSC; disulfide 2-11 (inferred); also: ['PAL photo-activatable cross-linking group, structure and site not given here'])",enriched by several fold-changes; also recorded: bound to LANCL1,shown to cross-link,,,,,,bound to recombinant LANCL3
